biological target: HLA-A*02 (human); experiment: UV-exchange b2m ELISA

| Binder | peptide exchange yield [%] |
| --- | --- |
| SLDPDTLPAV | 20 to 49 |
| LLLPAVPVGA | 50 to 75 |
| AIVDLIHDI | 20 to 49 |
| SVVPDVRSV | 20 to 49 |
| SLSNRLYYL | 50 to 75 |
| FLFGGVLMTL | 20 to 49 |
| FLLGVSKEV | 50 to 75 |
| YLLQSVNQLLL | 20 to 49 |
| SLDPSVTHL | 20 to 49 |
| SQIPAQPSV | 20 to 49 |
| YLVSEIFKA | 50 to 75 |
| GQASYFYVA | 20 to 49 |
| VLDPALPALV | 20 to 49 |
| ALLPRLHQL | > 75 |
| QMFQYFITV | > 75 |
| FIIQGLRSVGA | 50 to 75 |
| HLSTIIHEA | 50 to 75 |
| KMPDVELFV | 50 to 75 |
| VTSNSGILGV | 50 to 75 |
| VLNDILVRA | 50 to 75 |
| RLQDILWFL | > 75 |
| SLLGGTFVGI | 50 to 75 |
| ALISWQPPRA | 50 to 75 |
| QLIQTLHAV | 50 to 75 |
| TIYKDFVYI | 20 to 49 |

| Binder | peptide exchange yield [%] |
| --- | --- |
| FIFDEAEKL | < 20 |
| KLYEADFVL | 20 to 49 |
| FLLPTGAEA | 20 to 49 |
| FLAVGLVDV | 50 to 75 |
| VTFKEYVTV | 20 to 49 |
| QLWQFLVTL | 50 to 75 |
| VLHSKFWVV | 50 to 75 |
| KLDGNELDL | 50 to 75 |
| LLVPTSGIYFV | 50 to 75 |
| AIVKEIVNI | 20 to 49 |
| ALNPELVQA | 20 to 49 |
| SLGKFTFDV | > 75 |
| QLAPVFQRV | 20 to 49 |
| FINDSIVYL | 50 to 75 |
| FLQDLEQRL | 50 to 75 |
| AQADHLPQL | 20 to 49 |
| VTPVTVSAV | < 20 |
| VLLDIQEVFQI | 50 to 75 |
| SLADYEHFV | > 75 |
| YTLREVDTV | 20 to 49 |
| KVMATIEKV | 20 to 49 |
| LLVSHLYLV | 20 to 49 |
| TLLQRLTEV | 50 to 75 |
| GLLGSLFFL | > 75 |
| NALDKVLSV | 50 to 75 |

| Binder | peptide exchange yield [%] |
| --- | --- |
| TQSPATLSV | 20 to 49 |
| TLIDEQDIPLV | 50 to 75 |
| GVVDPVHGV | 20 to 49 |
| FLTAINYLL | 50 to 75 |
| ILGEVLAQL | 50 to 75 |
| FTIFRTISV | 50 to 75 |
| FLDKVLVAA | 50 to 75 |
| ALADFMLSL | 50 to 75 |
| AVIKFLELL | 50 to 75 |
| TLFGYSVVL | 50 to 75 |
| GLAVPTPSV | 50 to 75 |
| KLIFSVEAV | 50 to 75 |
| ILLKNLVTI | 20 to 49 |
| RLFPDFFTRVAL | 20 to 49 |
| ALLGTKILL | 50 to 75 |
| SLFPDSLIV | 20 to 49 |
| FLERGLESA | 20 to 49 |
| AVGPVHNSV | 20 to 49 |
| SVDSHFQEV | 20 to 49 |
| ALLAKILQI | 50 to 75 |
| ALLGMIIVGV | < 20 |
| GLLFSLRSV | > 75 |
| ALCPRIHEV | > 75 |
| LLLGDSALYL | 50 to 75 |
| TVVTRLDEI | 20 to 49 |
